Reference: publication PMC4791640

Molecular target: T1, TON_1525 wild-type (putative transcriptional regulator) (Thermococcus onnurineus NA1) (UniProt B6YTS4)
T1 sequence: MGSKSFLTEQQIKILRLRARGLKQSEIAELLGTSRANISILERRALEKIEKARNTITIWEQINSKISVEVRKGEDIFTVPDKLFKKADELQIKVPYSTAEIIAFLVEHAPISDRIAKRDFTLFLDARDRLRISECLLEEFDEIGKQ
Assay: EMSA
Settings: EMSA: 100 nM DNA, 20 mM Tris-HCl, 200 mM KCl, 1 mM EDTA, 5% glycerol, pH 7.5, 80 C for 10 min; 5% native PAGE

## GAGAGTTTTACTGTCTCTAAATGAAAGGTTCTAATACGGTGGATCGAATAATTTCTTGCGTTTTTATCCGGATCGCCGAACACGATTCCATCTTAAAATCTTTTTGTTTACATTATACGAGGTGATCAACAATGCCAGCTTTTTCCGGTT (double strand) [CODH promoter 150-bp probe]
  binding: binds
